Results as given in patent publication US12123876B2, “Antibody binding to HEG1 and use of the antibody for detection and treatment of mesothelioma” (Kanagawa Prefectural Hospital Organization, priority 2016, dated 2024).

B1: HEG1 full length: full length human HEG1 protein, SEQ ID NO: 35, expressed in mesothelioma cell line (protein, listed as Homo sapiens)
chain: MASPRASRWPPPLLLLLLPLLLLPPAAPGTRDPPPSPARRALSLAPLAGAGLELQLERRPEREPPPTPPRERRGPATPGPSYRAPEPGAATQRGPSGRAPRGGSADAAWKHWPESNTEAHVENITFYQNQEDFSTVSSKEGVMVQTSGKSHAASDAPENLTLLAETADARGRSGSSSRTNFTILPVGYSLEIATALTSQSGNLASESLHLPSSSSEFDERIAAFQTKSGTASEMGTERAMGLSEEWTVHSQEATTSAWSPSFLPALEMGELTTPSRKRNSSGPDLSWLHFYRTAASSPLLDLSSSSESTEKLNNSTGLQSSSVSQTKTMHVATVFTDGGPRTLRSLTVSLGPVSKTEGFPKDSRIATTSSSVLLSPSAVESRRNSRVTGNPGDEEFIEPSTENEFGLTSLRWQNDSPTFGEHQLASSSEVQNGSPMSQTETVSRSVAPMRGGEITAHWLLTNSTTSADVTGSSASYPEGVNASVLTQFSDSTVQSGGSHTALGDRSYSESSSTSSSESLNSSAPRGERSIAGISYGQVRGTAIEQRTSSDHTDHTYLSSTFTKGERALLSITDNSSSSDIVESSTSYIKISNSSHSEYSSFFHAQTERSNISSYDGEYAQPSTESPVLHTSNLPSYTPTINMPNTSVVLDTDAEFVSDSSSSSSSSSSSSSSSSSSSSGPPLPLPSVSQSHHLFSSILPSTRASVHLLKSTSDASTPWSSSPSPLPVSLTTSTSAPLSVSQTTLPQSSSTPVLPRARETPVTSFQTSTMTSFMTMLHSSQTADLKSQSTPHQEKVITESKSPSLVSLPTESTKAVTTNSPLPPSLTESSTEQTLPATSTNLAQMSPTFTTTILKTSQPLMTTPGTLSSTASLVTGPIAVQTTAGKQLSLTHPEILVPQISTEGGISTERNRVIVDATSGLIPLTSVPTSAKEMTTKLGVTAEYSPASRSLGTSPSPQTTVVSTAEDLAPKSATFAVQSSTQSPTTLSSSASVNSCAVNPCLHNGECVADNTSRGYHCRCPPSWQGDDCSVDVNECLSNPCPSTAMCNNTQGSFICKCPVGYQLEKGICNLVRTFVTEFKLKRTFLNTTVEKHSDLQEVENEITKTLNMCFSALPSYIRSTVHASRESNAVVISLQTTFSLASNVTLFDLADRMQKCVNSCKSSAEVCQLLGSQRRIFRAGSLCKRKSPECDKDTSICTDLDGVALCQCKSGYFQFNKMDHSCRACEDGYRLENETCMSCPFGLGGLNCGNPYQLITVVIAAAGGGLLLILGIALIVTCCRKNKNDISKLIFKSGDFQMSPYAEYPKNPRSQEWGREAIEMHENGSTKNLLQMTDVYYSPTSVRNPELERNGLYPAYTGLPGSRHSCIFPGQYNPSFISDESRRRDYF
B2: HEG1 3 kb: HEG1 fragment, position 285 leucine to position 1387 phenylalanine of SEQ ID NO: 35 (protein, listed as Homo sapiens)
chain: LSWLHFYRTAASSPLLDLSSSSESTEKLNNSTGLQSSSVSQTKTMHVATVFTDGGPRTLRSLTVSLGPVSKTEGFPKDSRIATTSSSVLLSPSAVESRRNSRVTGNPGDEEFIEPSTENEFGLTSLRWQNDSPTFGEHQLASSSEVQNGSPMSQTETVSRSVAPMRGGEITAHWLLTNSTTSADVTGSSASYPEGVNASVLTQFSDSTVQSGGSHTALGDRSYSESSSTSSSESLNSSAPRGERSIAGISYGQVRGTAIEQRTSSDHTDHTYLSSTFTKGERALLSITDNSSSSDIVESSTSYIKISNSSHSEYSSFFHAQTERSNISSYDGEYAQPSTESPVLHTSNLPSYTPTINMPNTSVVLDTDAEFVSDSSSSSSSSSSSSSSSSSSSSGPPLPLPSVSQSHHLFSSILPSTRASVHLLKSTSDASTPWSSSPSPLPVSLTTSTSAPLSVSQTTLPQSSSTPVLPRARETPVTSFQTSTMTSFMTMLHSSQTADLKSQSTPHQEKVITESKSPSLVSLPTESTKAVTTNSPLPPSLTESSTEQTLPATSTNLAQMSPTFTTTILKTSQPLMTTPGTLSSTASLVTGPIAVQTTAGKQLSLTHPEILVPQISTEGGISTERNRVIVDATSGLIPLTSVPTSAKEMTTKLGVTAEYSPASRSLGTSPSPQTTVVSTAEDLAPKSATFAVQSSTQSPTTLSSSASVNSCAVNPCLHNGECVADNTSRGYHCRCPPSWQGDDCSVDVNECLSNPCPSTAMCNNTQGSFICKCPVGYQLEKGICNLVRTFVTEFKLKRTFLNTTVEKHSDLQEVENEITKTLNMCFSALPSYIRSTVHASRESNAVVISLQTTFSLASNVTLFDLADRMQKCVNSCKSSAEVCQLLGSQRRIFRAGSLCKRKSPECDKDTSICTDLDGVALCQCKSGYFQFNKMDHSCRACEDGYRLENETCMSCPFGLGGLNCGNPYQLITVVIAAAGGGLLLILGIALIVTCCRKNKNDISKLIFKSGDFQMSPYAEYPKNPRSQEWGREAIEMHENGSTKNLLQMTDVYYSPTSVRNPELERNGLYPAYTGLPGSRHSCIFPGQYNPSFISDESRRRDYF
B3: HEG1 2 kb: HEG1 fragment, position 677 leucine to position 1387 phenylalanine of SEQ ID NO: 35 (protein, listed as Homo sapiens)
chain: SSGPPLPLPSVSQSHHLFSSILPSTRASVHLLKSTSDASTPWSSSPSPLPVSLTTSTSAPLSVSQTTLPQSSSTPVLPRARETPVTSFQTSTMTSFMTMLHSSQTADLKSQSTPHQEKVITESKSPSLVSLPTESTKAVTTNSPLPPSLTESSTEQTLPATSTNLAQMSPTFTTTILKTSQPLMTTPGTLSSTASLVTGPIAVQTTAGKQLSLTHPEILVPQISTEGGISTERNRVIVDATSGLIPLTSVPTSAKEMTTKLGVTAEYSPASRSLGTSPSPQTTVVSTAEDLAPKSATFAVQSSTQSPTTLSSSASVNSCAVNPCLHNGECVADNTSRGYHCRCPPSWQGDDCSVDVNECLSNPCPSTAMCNNTQGSFICKCPVGYQLEKGICNLVRTFVTEFKLKRTFLNTTVEKHSDLQEVENEITKTLNMCFSALPSYIRSTVHASRESNAVVISLQTTFSLASNVTLFDLADRMQKCVNSCKSSAEVCQLLGSQRRIFRAGSLCKRKSPECDKDTSICTDLDGVALCQCKSGYFQFNKMDHSCRACEDGYRLENETCMSCPFGLGGLNCGNPYQLITVVIAAAGGGLLLILGIALIVTCCRKNKNDISKLIFKSGDFQMSPYAEYPKNPRSQEWGREAIEMHENGSTKNLLQMTDVYYSPTSVRNPELERNGLYPAYTGLPGSRHSCIFPGQYNPSFISDESRRRDYF
B4: HEG1 1 kb: HEG1 fragment, position 992 valine to position 1387 phenylalanine of SEQ ID NO: 35 (protein, listed as Homo sapiens)
chain: VNSCAVNPCLHNGECVADNTSRGYHCRCPPSWQGDDCSVDVNECLSNPCPSTAMCNNTQGSFICKCPVGYQLEKGICNLVRTFVTEFKLKRTFLNTTVEKHSDLQEVENEITKTLNMCFSALPSYIRSTVHASRESNAVVISLQTTFSLASNVTLFDLADRMQKCVNSCKSSAEVCQLLGSQRRIFRAGSLCKRKSPECDKDTSICTDLDGVALCQCKSGYFQFNKMDHSCRACEDGYRLENETCMSCPFGLGGLNCGNPYQLITVVIAAAGGGLLLILGIALIVTCCRKNKNDISKLIFKSGDFQMSPYAEYPKNPRSQEWGREAIEMHENGSTKNLLQMTDVYYSPTSVRNPELERNGLYPAYTGLPGSRHSCIFPGQYNPSFISDESRRRDYF
B5: 7.6: HEG1 exon 7 fragment from amino acid No. 783 bonded to SLURPgpi; SEQ ID NO: 66 in FIG. 13 (protein)
chain: DLKSQSTPHQEKVITESKSPSLVSLPTESTKAVTTNSPLPPSLTESSTEQTLPATSTNLAQMSPTFTTTILKTSQPLMTTPGTLSSTASLVTGPIAVQTTAGKQLSLTHPEILVPQISTEGGISTERNRVIVDATSGLIPLTSVPTSAKEMTTKLGVTAEYSPASRSLGTSPSPQTTVVSTAEDLAPKSATFAVQSSTQSPTTLSSSASGSLKCYTCKEPMTSASCRTITRCKPEDTACMTTLVTVEAEYPFNQSPVVTRSCSSSCVATDPDSIGAAHLIFCCFRDLCNSELSRDGAPSLGSPGGLLLALALFLLLGVLL

System: SKM9-2 antibody
Test: Western blot reactivity of human HEG1 fragments expressed in ACC-MESO-1 with SKM9-2 antibody
Assay type: binding, mouse
Settings: Western blot of cell lysate
Procedure: In this Example, the mesothelioma cell line ACC-MESO-1 was allowed to express a human HEG1 fragment with the endogenous HEG1 of ACC-MESO-1 knocked down, and the reactivity with the SKM9-2 antibody was examined. Subsequently, the reactivity with the antibody was tested for the epitope region through alanine scanning, and key amino acids for binding to the antibody were determined.
Gene transfer was performed with HEG1 siRNA (H9106) (SEQ ID NOs: 40, 41) and human HEG1 for the mesothelioma cell line ACC-MESO-1, and the reactivity of the SKM9-2 was examined through Western blot analysis. A full length protein (HEG1 full length) or a fragment (HEG1 3 kb, HEG1 2 kb, or HEG1 1 kb) of the human HEG1 was used. The full length human HEG1 protein, a protein having the amino acid sequence set forth in SEQ ID NO: 35, was obtained through inserting a base sequence set forth in SEQ ID NO: 34 into pFLAG-CMV1 (Sigma-Aldrich Japan K.K.) to obtain a plasmid, transforming the plasmid, and allowing the mesothelioma cell line to express the plasmid. Fragment HEG1 3 kb was obtained through inserting a fragment corresponding to a sequence from position 285, leucine, to position 1387, phenylalanine, of SEQ ID NO: 35 into pFLAG-CMV1 (Sigma-Aldrich Japan K.K.) in an in-frame manner, and allowing the mesothelioma cell line to express the resultant. HEG1 2 kb and HEG1 1 kb were obtained through allowing the mesothelioma cell line to express products similarly obtained from a fragment corresponding to a sequence from position 677, leucine, to position 1387, phenylalanine, of SEQ ID NO: 35 and a fragment corresponding to a sequence from position 992, valine, to position 1387, phenylalanine, of SEQ ID NO: 35, respectively. Each cell lysate was analyzed through Western blot with the SKM9-2 antibody.
Further, the region in exon 7 of HEG1 was analyzed in detail. The amino acid sequence of a part of exon 7 of HEG1 was connected to the N-terminal side of a protein obtained by connecting a GPI anchor signal to human SLURP1 (SEQ ID NO: 42; hereinafter referred to as “SLURPgpi”) to produce a fusion protein, and the reactivity of the SKM9-2 was examined through Western blot analysis with the fusion protein. A signal sequence (SEQ ID NO: 43) was added to the N-terminal of the fusion protein before expression.
Used fusion proteins of a partial sequence of exon 7 of HEG1 and SLURPgpi were as follows: • a fragment obtained by bonding a fragment from amino acid No. 783, aspartic acid, to amino acid No. 991, serine, to SLURPgpi (7.6); • a fragment obtained by bonding a fragment from amino acid No. 832, glutamine, to amino acid No. 991, serine, to SLURPgpi (7.7); • a fragment obtained by bonding a fragment from amino acid No. 886, glutamine, to amino acid No. 991, serine, to SLURPgpi (7.8); • a fragment obtained by bonding a fragment from amino acid No. 941, alanine, to amino acid No. 991, serine, to SLURPgpi (7.9); • a fragment obtained by bonding SEQ ID NO: 44 to SLURPgpi (7.61); • a fragment obtained by bonding SEQ ID NO: 45 to SLURPgpi (7.62); • a fragment obtained by bonding SEQ ID NO: 46 to SLURPgpi (7.63); • a fragment obtained by bonding SEQ ID NO: 47 to SLURPgpi (7.64); • a fragment obtained by bonding SEQ ID NO: 48 to SLURPgpi (7.623); • a fragment obtained by bonding SEQ ID NO: 49 to SLURPgpi (7.6231); • a fragment obtained by bonding SEQ ID NO: 50 to SLURPgpi (7.6232); • a fragment obtained by bonding SEQ ID NO: 51 to SLURPgpi (7.6241); and • a fragment obtained by bonding SEQ ID NO: 52 to SLURPgpi (7.6242).

| Molecule | Binding to SKM9-2 antibody (positive/negative) | Binding to SKM9-2 antibody (positive/negative) (listed as fragment 7.6) |
| --- | --- | --- |
| B1 | positive | – |
| B2 | positive | – |
| B3 | positive | – |
| B4 | negative | – |
| B5 | positive | positive signal |
